Our source for the koff and Kd values is paper PMC11950852, “Diversity Scale of Library Matters: Impact of mRNA Library Diversity Scales on the Discovery of Macrocyclic Peptides Targeting a Protein by the RaPID System” (ACS Central Science, 2025).

Bridges are numbered along the chain shown (N, C = ends). Where no end group is shown, it is not given here. [ ]: non-standard residue; d: D form.

Sequences and labels used below:
B1: 14–5 (peptide)
chain: {CH2CO}-YLSWKYYDSSDWVILSCG-NH2
modifications: thioether N-17
SMILES: CC[C@H](C)[C@@H]1NC(=O)[C@H](C(C)C)NC(=O)[C@H](Cc2c[nH]c3ccccc23)NC(=O)[C@H](CC(=O)O)NC(=O)[C@H](CO)NC(=O)[C@H](CO)NC(=O)[C@H](CC(=O)O)NC(=O)[C@H](Cc2ccc(O)cc2)NC(=O)[C@H](Cc2ccc(O)cc2)NC(=O)[C@H](CCCCN)NC(=O)[C@H](Cc2c[nH]c3ccccc23)NC(=O)[C@H](CO)NC(=O)[C@H](CC(C)C)NC(=O)[C@H](Cc2ccc(O)cc2)NC(=O)CSC[C@@H](C(=O)NCC(N)=O)NC(=O)[C@H](CO)NC(=O)[C@H](CC(C)C)NC1=O
B2: 14–4 (peptide)
chain: {CH2CO}-YYSWTGRDFDAVKWNKCG-NH2
modifications: thioether N-17
SMILES: CC(C)[C@@H]1NC(=O)[C@H](C)NC(=O)[C@H](CC(=O)O)NC(=O)[C@H](Cc2ccccc2)NC(=O)[C@H](CC(=O)O)NC(=O)[C@H](CCCNC(=N)N)NC(=O)CNC(=O)[C@H]([C@@H](C)O)NC(=O)[C@H](Cc2c[nH]c3ccccc23)NC(=O)[C@H](CO)NC(=O)[C@H](Cc2ccc(O)cc2)NC(=O)[C@H](Cc2ccc(O)cc2)NC(=O)CSC[C@@H](C(=O)NCC(N)=O)NC(=O)[C@H](CCCCN)NC(=O)[C@H](CC(N)=O)NC(=O)[C@H](Cc2c[nH]c3ccccc23)NC(=O)[C@H](CCCCN)NC1=O
B3: 12–5 (peptide)
chain: {CH2CO}-YLVWHEYDSKKWYFSLCG-NH2
modifications: thioether N-17
SMILES: CC(C)C[C@@H]1NC(=O)[C@H](CO)NC(=O)[C@H](Cc2ccccc2)NC(=O)[C@H](Cc2ccc(O)cc2)NC(=O)[C@H](Cc2c[nH]c3ccccc23)NC(=O)[C@H](CCCCN)NC(=O)[C@H](CCCCN)NC(=O)[C@H](CO)NC(=O)[C@H](CC(=O)O)NC(=O)[C@H](Cc2ccc(O)cc2)NC(=O)[C@H](CCC(=O)O)NC(=O)[C@H](Cc2c[nH]cn2)NC(=O)[C@H](Cc2c[nH]c3ccccc23)NC(=O)[C@H](C(C)C)NC(=O)[C@H](CC(C)C)NC(=O)[C@H](Cc2ccc(O)cc2)NC(=O)CSC[C@@H](C(=O)NCC(N)=O)NC1=O
B4: 10–1 (peptide)
chain: {CH2CO}-YYSWSGSVSESVKWNSCG-NH2
modifications: thioether N-17
SMILES: CC(C)[C@@H]1NC(=O)[C@H](CO)NC(=O)CNC(=O)[C@H](CO)NC(=O)[C@H](Cc2c[nH]c3ccccc23)NC(=O)[C@H](CO)NC(=O)[C@H](Cc2ccc(O)cc2)NC(=O)[C@H](Cc2ccc(O)cc2)NC(=O)CSC[C@@H](C(=O)NCC(N)=O)NC(=O)[C@H](CO)NC(=O)[C@H](CC(N)=O)NC(=O)[C@H](Cc2c[nH]c3ccccc23)NC(=O)[C@H](CCCCN)NC(=O)[C@H](C(C)C)NC(=O)[C@H](CO)NC(=O)[C@H](CCC(=O)O)NC(=O)[C@H](CO)NC1=O
B5: 14–3 (peptide)
chain: {CH2CO}-YLSWSEFDSKNWSLAYCG-NH2
modifications: thioether N-17
SMILES: CC(C)C[C@@H]1NC(=O)[C@H](CO)NC(=O)[C@H](Cc2c[nH]c3ccccc23)NC(=O)[C@H](CC(N)=O)NC(=O)[C@H](CCCCN)NC(=O)[C@H](CO)NC(=O)[C@H](CC(=O)O)NC(=O)[C@H](Cc2ccccc2)NC(=O)[C@H](CCC(=O)O)NC(=O)[C@H](CO)NC(=O)[C@H](Cc2c[nH]c3ccccc23)NC(=O)[C@H](CO)NC(=O)[C@H](CC(C)C)NC(=O)[C@H](Cc2ccc(O)cc2)NC(=O)CSC[C@@H](C(=O)NCC(N)=O)NC(=O)[C@H](Cc2ccc(O)cc2)NC(=O)[C@H](C)NC1=O
B6: 14–6 (peptide)
chain: {CH2CO}-YIEWYVYDSKSWVYVRCG-NH2
modifications: thioether N-17
SMILES: CC[C@H](C)[C@@H]1NC(=O)[C@H](Cc2ccc(O)cc2)NC(=O)CSC[C@@H](C(=O)NCC(N)=O)NC(=O)[C@H](CCCNC(=N)N)NC(=O)[C@H](C(C)C)NC(=O)[C@H](Cc2ccc(O)cc2)NC(=O)[C@H](C(C)C)NC(=O)[C@H](Cc2c[nH]c3ccccc23)NC(=O)[C@H](CO)NC(=O)[C@H](CCCCN)NC(=O)[C@H](CO)NC(=O)[C@H](CC(=O)O)NC(=O)[C@H](Cc2ccc(O)cc2)NC(=O)[C@H](C(C)C)NC(=O)[C@H](Cc2ccc(O)cc2)NC(=O)[C@H](Cc2c[nH]c3ccccc23)NC(=O)[C@H](CCC(=O)O)NC1=O
B7: 14–2 (peptide)
chain: {CH2CO}-YYSWSGKDVDSVIWNNCG-NH2
modifications: thioether N-17
SMILES: CC[C@H](C)[C@@H]1NC(=O)[C@H](C(C)C)NC(=O)[C@H](CO)NC(=O)[C@H](CC(=O)O)NC(=O)[C@H](C(C)C)NC(=O)[C@H](CC(=O)O)NC(=O)[C@H](CCCCN)NC(=O)CNC(=O)[C@H](CO)NC(=O)[C@H](Cc2c[nH]c3ccccc23)NC(=O)[C@H](CO)NC(=O)[C@H](Cc2ccc(O)cc2)NC(=O)[C@H](Cc2ccc(O)cc2)NC(=O)CSC[C@@H](C(=O)NCC(N)=O)NC(=O)[C@H](CC(N)=O)NC(=O)[C@H](CC(N)=O)NC(=O)[C@H](Cc2c[nH]c3ccccc23)NC1=O
B8: 14–1 (peptide)
chain: {CH2CO}-YWVYGFGKLNNDWRAFCG
modifications: thioether N-17 (inferred)
B9: aMD4 (peptide)
chain: {CH2CO}-[dY]RQFNRRTHEVWNLDCG
modifications: thioether N-16 (inferred)
B10: aML5 (peptide)
peptide: {CH2CO}-YISWNEFNSPNWRFITCG-NH2
modifications: thioether N-17
SMILES: CC[C@H](C)[C@@H]1NC(=O)[C@H](Cc2ccc(O)cc2)NC(=O)CSC[C@@H](C(=O)NCC(N)=O)NC(=O)[C@H]([C@@H](C)O)NC(=O)[C@H]([C@@H](C)CC)NC(=O)[C@H](Cc2ccccc2)NC(=O)[C@H](CCCNC(=N)N)NC(=O)[C@H](Cc2c[nH]c3ccccc23)NC(=O)[C@H](CC(N)=O)NC(=O)[C@@H]2CCCN2C(=O)[C@H](CO)NC(=O)[C@H](CC(N)=O)NC(=O)[C@H](Cc2ccccc2)NC(=O)[C@H](CCC(=O)O)NC(=O)[C@H](CC(N)=O)NC(=O)[C@H](Cc2c[nH]c3ccccc23)NC(=O)[C@H](CO)NC1=O
notes: Benchmark macrocycle from an earlier RaPID selection; measured again here; also called 17-mer aML5
B11: 6–2 (peptide)
chain: {CH2CO}-YFYYNWTNVAKWAKTLCG
modifications: thioether N-17 (inferred)
B12: 8–1 (peptide)
chain: {CH2CO}-YWYYTFDGRWKEYGAACG
modifications: thioether N-17 (inferred)
B13: 6–1 (peptide)
chain: {CH2CO}-YSWYLNWQAQWKKFEFCG
modifications: thioether N-17 (inferred)
B14: 8–2 (peptide)
chain: {CH2CO}-YYHWNGRDGDKVEWVVCG-NH2
modifications: thioether N-17
SMILES: CC(C)[C@@H]1NC(=O)[C@H](CCCCN)NC(=O)[C@H](CC(=O)O)NC(=O)CNC(=O)[C@H](CC(=O)O)NC(=O)[C@H](CCCNC(=N)N)NC(=O)CNC(=O)[C@H](CC(N)=O)NC(=O)[C@H](Cc2c[nH]c3ccccc23)NC(=O)[C@H](Cc2c[nH]cn2)NC(=O)[C@H](Cc2ccc(O)cc2)NC(=O)[C@H](Cc2ccc(O)cc2)NC(=O)CSC[C@@H](C(=O)NCC(N)=O)NC(=O)[C@H](C(C)C)NC(=O)[C@H](C(C)C)NC(=O)[C@H](Cc2c[nH]c3ccccc23)NC(=O)[C@H](CCC(=O)O)NC1=O

The target in one experiment is T1, ectodomain of MET fused to Fc (UniProt P08581 25-932).
T1 chain: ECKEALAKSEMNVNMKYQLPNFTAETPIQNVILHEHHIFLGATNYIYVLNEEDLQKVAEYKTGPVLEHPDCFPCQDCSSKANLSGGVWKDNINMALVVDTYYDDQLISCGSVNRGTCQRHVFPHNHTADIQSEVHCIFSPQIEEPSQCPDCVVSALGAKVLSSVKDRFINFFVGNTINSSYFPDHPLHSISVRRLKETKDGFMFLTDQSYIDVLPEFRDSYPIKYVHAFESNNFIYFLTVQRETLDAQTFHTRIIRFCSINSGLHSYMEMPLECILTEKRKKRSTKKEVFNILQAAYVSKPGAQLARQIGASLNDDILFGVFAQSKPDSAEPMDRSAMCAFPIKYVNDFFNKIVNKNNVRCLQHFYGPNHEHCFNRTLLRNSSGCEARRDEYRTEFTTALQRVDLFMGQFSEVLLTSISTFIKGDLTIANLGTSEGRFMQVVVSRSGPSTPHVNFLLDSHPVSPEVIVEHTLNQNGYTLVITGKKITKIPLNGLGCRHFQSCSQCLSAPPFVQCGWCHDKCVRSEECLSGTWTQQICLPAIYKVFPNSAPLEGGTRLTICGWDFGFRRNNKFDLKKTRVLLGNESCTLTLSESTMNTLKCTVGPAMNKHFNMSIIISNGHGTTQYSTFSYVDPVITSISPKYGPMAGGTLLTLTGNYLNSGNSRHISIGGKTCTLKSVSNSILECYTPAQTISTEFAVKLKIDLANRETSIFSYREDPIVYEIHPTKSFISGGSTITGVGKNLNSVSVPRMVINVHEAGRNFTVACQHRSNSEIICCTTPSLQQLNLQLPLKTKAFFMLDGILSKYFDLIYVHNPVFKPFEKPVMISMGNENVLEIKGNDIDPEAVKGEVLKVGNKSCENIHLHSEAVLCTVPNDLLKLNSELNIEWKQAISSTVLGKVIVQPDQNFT
The experiment can be described thus: SPR.
Details: not given
B1 registered a koff of 0.00836 s⁻¹.

B2 registered a koff of 0.00198 s⁻¹.

In turn, B3 displayed a koff of 0.002 s⁻¹.

B4: the off-rate constant (koff) was 0.00878 s⁻¹.

Turning to B5, the koff is 0.00297 s⁻¹.

As to B6, the koff was found to be 0.00564 s⁻¹.

As to B7, the koff is 0.00182 s⁻¹.

Regarding B8, the koff came out at 0.000739 s⁻¹.

In the case of B9, the koff came to 0.00676 s⁻¹.

Molecule B10 yielded a koff of 0.00606 s⁻¹.

In the next experiment the target is T1, ectodomain of MET fused to Fc. The experiment can be described thus: SPR.
Details: not given
This is another data set of the same source.
As to B11, the Kd amounted to 102 nM.

B1 showed a Kd of 64.7 nM.

On to B2, for which binding was put at a Kd of 2.49 nM.

Regarding B3, the Kd was 15.4 nM.

In turn, B5 yielded a Kd of 35 nM.

B6 showed a Kd of 31.5 nM.

Molecule B7 came in with a Kd of 3.93 nM.

Turning to B8, the Kd came to 2.87 nM.

The target in a further experiment is T2, ectodomain of MET fused to Fc (UniProt P08581 25-932).
T2 construct: MET (hepatocyte growth factor receptor), a receptor tyrosine kinase; also called MET-Fc; Fc-tagged MET
The experiment is described as follows: SPR; fitted by a 1:1 binding model; who was immobilised and the conditions are in the Supporting Information (not shown). The note with it: both partners purified. In general terms: SPR reads the build-up and loss of mass on a sensor chip optically.
As to B11, the koff is 0.0074 s⁻¹.

Molecule B12 registered a koff of 0.0427 s⁻¹.

Molecule B13 returned a koff of 0.0518 s⁻¹.

With B4, the koff is approximately 0.01 s⁻¹.

With B9, the Kd is 3.7 nM.

Molecule B10 had a Kd of 11.2 nM.

Take B14: the koff amounted to 0.0103 s⁻¹.

The term koff denotes the first-order rate constant of dissociation. Usually Kd stands for the free concentration of one partner at which half of the binding sites on the other are occupied at equilibrium, for simple one-to-one binding. Low readings indicate a tighter complex, high ones a looser complex.
